Substitutions are numbered along the chain they refer to.
B1: KCD010 (antibody, V domains shown)
VH: EVLLQQSGPELVKPGASVKIPCKASGYTFTDYDMDWVKQSHGKSLEWIGHINPNNGGTIYNQKFKGKATLTVDKSSSTAYMELRSLTSEDTAVYYCGTGDFAYWGHGTLVTVSA
VL: QIVLTQSPAIMSVSPGEKVTLTCSASSSVSSSYLYWYQKKPGSSPKLWIYSTSNLASGVPARFSGSGSGTSYSLTISSMEAEDAASYFCHQWSSYPPTFGAGTKLELK
notes: chimeric
B2: KCD122 (antibody, V domains shown)
VH: EVQLQQSGPELVKPGASVKISCKASGYTFTDYYKNWMRQRHGESLEWIGDINPNNGDANYNQKFKGKATLTVDKSSSTAYMELRSLTSEDSAVYFCAREGPSFAYWGHGTLVTVSA
VL: DVLMTQTPLSLPVSLGDQASISCRSSQTIVHSNGDTYLEWYLQKPGQSPNLLIYKVSNRFSGVPDRFSGSGSGTDFTLKISRVEAEDLGVYYCFQGSHVPPTFGGGTKLEIK
notes: chimeric
B3: KCD003 (antibody, V domains shown)
VH: EVQLQQSRPELVKPGASVKIFCKASGYTFTDYYMNWMRQRHGETLEWIGDINPNNGDPSYNQKFKDKATLTVDKSSSTASMELRSLTSDDSAVYYCAREGPSFAYWGQGTLVTVSA
VL: B2 VL with D17E
notes: chimeric
B4: KCD118 (antibody, V domains shown)
VH: B2 VH with S25F, N55S, F95Y
VL: B2 VL with V90I
notes: chimeric
B5: KCD208 (antibody, V domains shown)
VH: EVQLQQSVAELVRPGASVKLSCTVSGFNIKNTYMHWVKQRPEQGLEWIGRIDPANGDTTYAPKFQGKATITADTSSNSAYLHLSRLTSEDTAIYYCSLYDYDGYWGQGTTLTVSS
VL: EIVLTQSPALMAASPGEKVTITCSVSSSISSSSLHWYRQKSGTSPKPWIYGTSHLASGVPVRFSGSGSGTSYSLTISSMEAEDAATYYCQQWDTYPWTFGGGTKLEIK
notes: chimeric
B6: KCD214 (antibody, V domains shown)
VH: B5 VH with L11F, V24A, D57N, T59E, S78T, H82Q, R85S, S97A
VL: B5 VL with S24R, R38Q, H54N, G67R, D93S, T94D
notes: chimeric
B7: KCD224 (antibody, V domains shown)
VH: QVQLKESGPGLVAPSQSLSITCTVSGFSLTSYGVDWIRQSPGKGLEWLGVIWGVGSTNYNSALKSRLSISKDNSKSQVFLKMNSLQTDDTAMYYCARSYDGSYWYFDVWGTGTTVTVSS
VL: DIQMTQTTSSLSASLGDRVTISCRASQVISNYLNWYQQKPDGTVKLLIYYTSRLHSGVPSRFSGSGSGTDYSLTISNLEPEDIATYYCQQYSKLPYTFGSGTKLEIK
notes: chimeric
B8: KCD047 (antibody, V domains shown)
VH: EVQLQQSGAEFVKPGASVRLSCTASGFNIKDTYMHWVKQRPEQGLEWIGRIDPANGYTKDDPKFQGKATITADTSSNTAYLQLSSLTSEDTAVYYCASAMDYWGQGTSVTVSS
VL: QIVLTQSPAVMSASPGEKVAMTCSASSSVTYMYWYQQKPGSSPRLLIYDTSNLASGVPVRFSGSGSGTSYSLTISRMEAEDAATYYCQQWSTYPFPFGSGTKLEIK
notes: chimeric
B9: KCD136 (antibody, V domains shown)
VH: EVQLQQSVAELVRPGASVKLSCSASGFNIKNTYMHWVNQRPEQGLEWIGRIDPANGITKYAPNFQGKATITADTSSNTAYLQLSNLTSEDTAIYYCTRAMDYWGQGTSVTVSS
VL: B8 VL with V10I, A20T, T30S, T50I, S91D, F95W, P96T, S99G
notes: chimeric
B10: KCD131 (antibody, V domains shown)
VH: QVQLQQSGPELVKPGASVKISCKASAYTFTDYYINWVKQRPGQGPEWIGWIFPGSNSTYSNEKFEVKATLTVDESSSTAYMLLSSLTSEDSAVYFCARLGYFGSSYHALDYWGQGTSVTVSS
VL: DIQMTQSPASLSVSVGETVTITCRASENIYSHLAWFQQKQGKSPRLLVYSATNLPDGVPSRFSGSGSGTQYSLKINILQSEDFGSYYCQHFWGTPWTFGGGTKLEIK
notes: chimeric
B11: KCD220 (antibody, V domains shown)
VH: QVQLQQSGAELMEPGASVKLSCKATGYTFTGYWIEWVKQRPGHGLEWIGETLPGSDSNNYNEKFKGKATFTADTSSNTAYMQLSSLTTEDSAIYYCARDYSNYWYFDVWGTGTTVTVSS
VL: DIQMTQTTSSLSASLGDRVTISCRASQDISNYLNWYQQKPDGTVKLLIYYTSNLHSGVPSRFSGSGSGTDYSLTISNLEQEDIATYFCQQDSKHRTFGGGTKLEIK
notes: chimeric
B12: KCD002 (antibody, V domains shown)
VH: EVKLVESEGGLVQPGSSMKLSCTASGFTFSDYYMAWVRQVPEKGLEWVGNINYDGSSTYYLDSLKSRFIISRDSAKNILYLQMSSLKSEDTATYFCARGEDFYLYAMDYWGQGTSVTVSS
VL: DIQMTQSPASLSASVGETVTITCRASENIHSYLAWYQQKQGKSPQLIVYNTKTLAEGVPSRFSGSGSGTQFSLKINSLQPEDFGSYYCQHHYGIPPTFGGGTKLEIK
notes: chimeric
B13: KCD102 (antibody, V domains shown)
VH: QVQLQQPGAELVRPGTSVKLSCKASGYTFTSYWMHWVKQRPGQGLEWIGVIDPSDSYTNYNQKFKGKATLTVDTSSSTAYMQLSSLTSEDSAVYYCARNGYDGSMDYWGQGTSVTVSS
VL: B7 VL with D1E, V28D, T51P, P80Q, I83F, Y87F, Y91G, S92N, K93T, S100G
notes: chimeric
B14: KCD103 (antibody, V domains shown)
VH: B13 VH with N59K, G66D, D73E, R98G
VL: B7 VL with V28D, Y32S, G57R, E79D, P80Q, Y87F, Y91A, S92N, K93T, S100G
notes: chimeric
B15: KCD101 (antibody, V domains shown)
VH: B13 VH with A97G
VL: B7 VL with V28D, T51P, P80Q, I83F, Y87F, Y91G, S92N, K93T, S100G
notes: chimeric
B16: KCD104 (antibody, V domains shown)
VH: B13 VH with N59Y, S104A
VL: B7 VL with D1E, V28D, T51P, P80Q, I83F, Y87F, Y91G, S92N, K93T, S100G
notes: chimeric

molecular target: T1, recombinant human CFD mutant 1 (R157A, R207A), His-tagged (human, UniProt P00746 26-253); test: ELISA
T1 construct: positions are linear positions in the mature protein; also called rhCFD-mut1-His; Mut1
T1 sequence (P00746 26-253 R182A/R232A limits assumed): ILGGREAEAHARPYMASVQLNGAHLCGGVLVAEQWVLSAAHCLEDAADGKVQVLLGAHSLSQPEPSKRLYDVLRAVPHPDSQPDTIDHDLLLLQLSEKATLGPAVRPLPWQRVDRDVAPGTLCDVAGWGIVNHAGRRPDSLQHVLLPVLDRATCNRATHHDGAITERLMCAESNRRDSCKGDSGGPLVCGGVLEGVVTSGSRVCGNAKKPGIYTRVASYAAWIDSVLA
Wherever CFD Enzymatic activity (% of Neg Ctrl) is given: test concentration or dose not given here.

Mut1 Binding (% wt)	Binder
3.77	B1
2.25	B2
1.53	B3
0.762	B4

molecular target: T1, recombinant human CFD mutant 1 (R157A, …); test: ELISA; remark: another data set of the same source

Mut1 Binding (% wt)	Binder
56.7	B5
44.3	B6
121	B7
58.9	B8
78.3	B9

molecular target: T1, recombinant human CFD mutant 1 (R157A, …); test: ELISA; remark: another data set of the same source

Mut1 Binding (% wt)	Binder
80.7	B10
74.1	B11
71.2	B12
64.3	B13
65.2	B14
65.8	B15
68.3	B16

molecular target: T2, human complement factor D purified from serum (human, UniProt P00746 26-253); test: SPR MX96
T2 construct: serum-purified (CompTech); also called hCFD-Comptech; CFD
T2 sequence (P00746 26-253): as the sequence (P00746 26-253 R182A/R232A limits assumed) above, with A157R, A207R counted along it

Kd [nM]	Binder
2.5	B5
1.6	B6
3.1	B1
0.14	B10
1.4	B2
1.1	B3
0.76	B4
0.054	B11
0.13	B12
1.2	B7
3.6	B13
4.4	B14
3.8	B15
1.6	B16
4.4	B8
4.5	B9

molecular target: T3, recombinant cynomolgus CFD, His-tagged (cynomolgus); test: SPR MX96
T3 construct: also called rcyCFD-His; recombinant Cyno-CFD

Kd [nM]	Binder
52	B5
26	B6
2.9	B1
0.99	B10
1.9	B2
1.8	B3
1.3	B4
0.28	B11
0.41	B12
100	B7
230	B13
63	B14
240	B15
72	B16
160	B8
27	B9

molecular target: T4, recombinant human CFD, His-tagged (human, UniProt P00746 26-253); test: SPR MX96
T4 construct: also called rhCFD-His
T4 sequence (P00746 26-253 limits assumed): as the sequence (P00746 26-253 R182A/R232A limits assumed) above, with A157R, A207R counted along it

Kd [nM]	Binder
1.9	B5
1.1	B6
2.5	B1
0.047	B10
0.95	B2
0.81	B3
0.54	B4
0.074	B11
0.11	B12
0.54	B7
2.5	B13
3.1	B14
2.7	B15
1.2	B16
3.4	B8
3.4	B9

molecular target: T1, recombinant human CFD mutant 1 (R157A, …); test: SPR MX96

Kd [nM]	Binder
1.8	B5
1.3	B6
0.045	B10
0.029	B11
0.08	B12
1.1	B7
2.5	B13
2.5	B14
2.8	B15
0.82	B16
2.9	B8
1.4	B9

molecular target: T2, human complement factor D purified from …; test: not given

Kd [nM]	Binder
1.46	B1
0.162	B2
0.318	B3
0.0883	B4

molecular target: T2, human complement factor D purified from …; test: not given; remark: another data set of the same source

Kd [nM]	Binder
0.451	B5
0.245	B6
0.0156	B7
6.62	B8
0.587	B9

molecular target: T2, human complement factor D purified from …; test: not given; remark: another data set of the same source

Kd [nM]	Binder
0.0342	B10
0.0639	B11
0.0307	B12
6.98	B13
1.48	B14
1.45	B15
1.32	B16

molecular target: T2, human complement factor D purified from …; test: cell-based or functional assay

CFD Enzymatic activity (% of Neg Ctrl)	Binder
49.4 % of Neg Ctrl	B1
17.3 % of Neg Ctrl	B2
19.6 % of Neg Ctrl	B3
14 % of Neg Ctrl	B4

molecular target: T2, human complement factor D purified from …; test: cell-based or functional assay; remark: another data set of the same source

CFD Enzymatic activity (% of Neg Ctrl)	Binder
0 % of Neg Ctrl	B5
12.8 % of Neg Ctrl	B6
36.3 % of Neg Ctrl	B7
47.3 % of Neg Ctrl	B8
11.8 % of Neg Ctrl	B9

molecular target: T2, human complement factor D purified from …; test: cell-based or functional assay; remark: another data set of the same source

CFD Enzymatic activity (% of Neg Ctrl)	Binder
65.9 % of Neg Ctrl	B10
88.1 % of Neg Ctrl	B11
144 % of Neg Ctrl	B12
92.3 % of Neg Ctrl	B13
126 % of Neg Ctrl	B14
93.2 % of Neg Ctrl	B15
92.3 % of Neg Ctrl	B16

molecular target: T1, recombinant human CFD mutant 1 (R157A, …); test: ELISA, Mut1 Binding, Bin 2

binding result	Binder
no binding	B1
no binding	B2
no binding	B3
no binding	B4
